Reference: PMC9482650, “Quantitative fragmentomics allow affinity mapping of interactomes” (Nature Communications, 2022)

T1: RHPN1, Q8TCX5
T1 sequence (Q8TCX5 508-602, limits assumed, looked up): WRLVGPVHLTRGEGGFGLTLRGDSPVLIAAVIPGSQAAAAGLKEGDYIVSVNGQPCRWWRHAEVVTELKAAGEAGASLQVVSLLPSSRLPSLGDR

T2: DVL3, Q92997
T2 sequence (Q92997 244-331, limits assumed, looked up): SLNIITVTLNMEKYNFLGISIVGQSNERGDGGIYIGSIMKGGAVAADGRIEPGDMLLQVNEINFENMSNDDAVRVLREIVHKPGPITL

T3: TIAM2, Q8IVF5
T3 sequence (Q8IVF5 885-986, limits assumed, looked up): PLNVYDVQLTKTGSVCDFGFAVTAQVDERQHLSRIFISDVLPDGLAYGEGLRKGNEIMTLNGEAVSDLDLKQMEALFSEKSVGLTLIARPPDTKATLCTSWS

T4: FRMPD1, Q5SYB0
T4 sequence (Q5SYB0 52-145, limits assumed, looked up): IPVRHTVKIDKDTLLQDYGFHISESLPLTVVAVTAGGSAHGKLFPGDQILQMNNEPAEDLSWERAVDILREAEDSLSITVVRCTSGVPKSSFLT

T5: HTRA4, P83105
T5 sequence (P83105 378-476, limits assumed, looked up): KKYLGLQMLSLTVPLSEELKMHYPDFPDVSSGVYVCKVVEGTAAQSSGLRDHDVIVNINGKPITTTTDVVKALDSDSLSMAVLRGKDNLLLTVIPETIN

T6: SNTG2, Q9NY99
T6 sequence (Q9NY99 68-166, limits assumed, looked up): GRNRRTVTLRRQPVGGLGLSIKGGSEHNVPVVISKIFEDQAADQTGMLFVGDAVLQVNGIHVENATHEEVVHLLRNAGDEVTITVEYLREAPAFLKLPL

T7: SIPA1L2, Q9P2F8
T7 sequence (Q9P2F8 945-1036, limits assumed, looked up): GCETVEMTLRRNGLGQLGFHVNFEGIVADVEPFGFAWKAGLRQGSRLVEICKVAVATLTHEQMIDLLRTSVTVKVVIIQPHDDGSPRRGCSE

T8: RAPGEF6, Q8TEU7
T8 sequence (Q8TEU7 525-625, limits assumed, looked up): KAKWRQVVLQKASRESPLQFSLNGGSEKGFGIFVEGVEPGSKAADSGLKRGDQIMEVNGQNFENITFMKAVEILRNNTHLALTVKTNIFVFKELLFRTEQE

T9: APBA3_1, O96018
T9 sequence (O96018 389-490, limits assumed, looked up): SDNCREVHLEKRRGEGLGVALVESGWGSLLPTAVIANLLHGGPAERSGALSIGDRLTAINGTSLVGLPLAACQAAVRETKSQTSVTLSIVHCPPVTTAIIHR

T10: PTPN13_1, Q12923
T10 sequence (Q12923 1088-1188, limits assumed, looked up): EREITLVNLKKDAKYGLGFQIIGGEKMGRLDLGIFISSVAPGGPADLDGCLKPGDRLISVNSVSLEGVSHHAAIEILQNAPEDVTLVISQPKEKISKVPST

T11: PDZD7_3, Q9H5P4
T11 sequence (Q9H5P4 857-944, limits assumed, looked up): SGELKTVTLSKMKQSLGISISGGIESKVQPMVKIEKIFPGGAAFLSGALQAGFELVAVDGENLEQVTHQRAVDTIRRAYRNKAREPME


Assays:
Assay in all cases: holdup assay
Set-up in all cases: key: below the threshold = too weak to quantify, mostly under pKd 3.1 to 4
Details in all cases: plain residues with an end cap or a label only (N-terminal biotin on a linker: ado-ado)
RHPN1, Q8TCX5 = molecular target: T1, RHPN1, Q8TCX5
MAGI2_3, Q86UL8 = molecular target: MAGI2_3, Q86UL8
DVL3, Q92997 = molecular target: T2, DVL3, Q92997
Inadl_6, Q8NI35 = molecular target: Inadl_6, Q8NI35
DLG2_3, Q15700 = molecular target: DLG2_3, Q15700
FRMPD2_3, Q68DX3 = molecular target: FRMPD2_3, Q68DX3
MAGI2_6, Q86UL8 = molecular target: MAGI2_6, Q86UL8
TIAM2, Q8IVF5 = molecular target: T3, TIAM2, Q8IVF5
FRMPD1, Q5SYB0 = molecular target: T4, FRMPD1, Q5SYB0
LNX1_1, Q8TBB1 = molecular target: LNX1_1, Q8TBB1
HTRA4, P83105 = molecular target: T5, HTRA4, P83105
Inadl_8, Q8NI35 = molecular target: Inadl_8, Q8NI35
SNTG2, Q9NY99 = molecular target: T6, SNTG2, Q9NY99
PDZRN4_1, Q6ZMN7 = molecular target: PDZRN4_1, Q6ZMN7
SIPA1L2, Q9P2F8 = molecular target: T7, SIPA1L2, Q9P2F8
LNX1_2, Q8TBB1 = molecular target: LNX1_2, Q8TBB1
RAPGEF6, Q8TEU7 = molecular target: T8, RAPGEF6, Q8TEU7
APBA3_1, O96018 = molecular target: T9, APBA3_1, O96018
FRMPD4, Q14CM0 = molecular target: FRMPD4, Q14CM0
PTPN13_1, Q12923 = molecular target: T10, PTPN13_1, Q12923
ARHGEF12, Q9NZN5-2 = molecular target: ARHGEF12, Q9NZN5-2
GRASP, Q7Z6J2 = molecular target: GRASP, Q7Z6J2
PDZD7_3, Q9H5P4 = molecular target: T11, PDZD7_3, Q9H5P4
FRMPD2_2, Q68DX3 = molecular target: FRMPD2_2, Q68DX3
GRIP2_4, Q9C0E4 = molecular target: GRIP2_4, Q9C0E4
FRMPD2_1, Q68DX3 = molecular target: FRMPD2_1, Q68DX3
NHERF4_4, Q86UT5 = molecular target: NHERF4_4, Q86UT5
Sequence of NHERF4_4, Q86UT5 (Q86UT5 464-550): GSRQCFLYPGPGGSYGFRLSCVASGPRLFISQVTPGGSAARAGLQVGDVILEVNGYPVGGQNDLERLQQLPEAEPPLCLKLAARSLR

Sequence of GRIP2_4, Q9C0E4 (Q9C0E4 446-548): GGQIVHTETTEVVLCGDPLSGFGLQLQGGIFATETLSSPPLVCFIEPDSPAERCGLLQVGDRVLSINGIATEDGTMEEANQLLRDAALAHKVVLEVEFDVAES
Sequence of Inadl_6, Q8NI35 (Q8NI35 1058-1167): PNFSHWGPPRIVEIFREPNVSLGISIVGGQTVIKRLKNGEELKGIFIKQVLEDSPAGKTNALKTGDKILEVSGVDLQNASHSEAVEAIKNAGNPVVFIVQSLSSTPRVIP
Sequence of LNX1_1, Q8TBB1 (Q8TBB1 261-371): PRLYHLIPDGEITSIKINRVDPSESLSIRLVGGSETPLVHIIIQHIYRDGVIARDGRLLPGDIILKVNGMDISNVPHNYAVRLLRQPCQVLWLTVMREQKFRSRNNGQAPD
Sequence of FRMPD4, Q14CM0 (Q14CM0 67-160): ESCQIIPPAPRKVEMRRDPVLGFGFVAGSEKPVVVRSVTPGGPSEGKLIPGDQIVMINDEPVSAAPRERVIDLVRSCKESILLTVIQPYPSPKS
Sequence of LNX1_2, Q8TBB1 (Q8TBB1 371-470): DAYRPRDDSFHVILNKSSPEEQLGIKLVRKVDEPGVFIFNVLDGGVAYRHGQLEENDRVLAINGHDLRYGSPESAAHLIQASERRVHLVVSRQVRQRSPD
Sequence of FRMPD2_2, Q68DX3 (Q68DX3 944-1038): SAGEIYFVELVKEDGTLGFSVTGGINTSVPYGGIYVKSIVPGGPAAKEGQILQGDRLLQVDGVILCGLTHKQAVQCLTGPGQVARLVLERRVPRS
Sequence of FRMPD2_3, Q68DX3 (Q68DX3 1073-1166): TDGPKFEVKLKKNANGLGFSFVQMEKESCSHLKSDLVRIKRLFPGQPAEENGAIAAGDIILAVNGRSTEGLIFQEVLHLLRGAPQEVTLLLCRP
Sequence of FRMPD2_1, Q68DX3 (Q68DX3 770-861): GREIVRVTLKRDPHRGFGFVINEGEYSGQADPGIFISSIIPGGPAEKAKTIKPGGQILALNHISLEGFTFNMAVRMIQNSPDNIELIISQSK
Sequence of MAGI2_3, Q86UL8 (Q86UL8 600-682): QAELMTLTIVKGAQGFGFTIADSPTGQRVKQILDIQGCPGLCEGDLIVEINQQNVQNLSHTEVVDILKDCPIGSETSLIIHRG
Sequence of Inadl_8, Q8NI35 (Q8NI35 1425-1530): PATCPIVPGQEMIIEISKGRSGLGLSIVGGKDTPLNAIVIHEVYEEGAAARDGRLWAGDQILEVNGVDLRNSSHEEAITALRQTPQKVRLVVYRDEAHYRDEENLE
Sequence of ARHGEF12, Q9NZN5-2 (Q9NZN5 other isoform, or with tags, fused parts or gaps): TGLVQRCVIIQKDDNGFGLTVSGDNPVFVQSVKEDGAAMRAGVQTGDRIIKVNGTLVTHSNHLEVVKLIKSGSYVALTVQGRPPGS
Sequence of GRASP, Q7Z6J2 (Q7Z6J2 96-193): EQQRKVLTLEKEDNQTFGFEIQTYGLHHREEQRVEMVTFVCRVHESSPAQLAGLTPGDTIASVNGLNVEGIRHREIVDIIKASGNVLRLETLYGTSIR
Sequence of MAGI2_6, Q86UL8 (Q86UL8 1141-1229): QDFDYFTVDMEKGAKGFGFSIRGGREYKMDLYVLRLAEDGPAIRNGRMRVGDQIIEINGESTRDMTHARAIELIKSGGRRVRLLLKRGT
Sequence of PDZRN4_1, Q6ZMN7 (Q6ZMN7 213-318): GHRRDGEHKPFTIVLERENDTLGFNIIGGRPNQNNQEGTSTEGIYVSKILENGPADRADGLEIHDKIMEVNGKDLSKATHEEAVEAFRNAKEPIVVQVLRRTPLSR

pKd (RHPN1, Q8TCX5) | pKd (DVL3, Q92997) | pKd (Inadl_6, Q8NI35) | pKd (DLG2_3, Q15700) | pKd (FRMPD2_3, Q68DX3) | pKd (MAGI2_6, Q86UL8) | pKd (TIAM2, Q8IVF5) | pKd (FRMPD1, Q5SYB0) | pKd (LNX1_1, Q8TBB1) | pKd (HTRA4, P83105) | pKd (Inadl_8, Q8NI35) | pKd (PDZRN4_1, Q6ZMN7) | pKd (SIPA1L2, Q9P2F8) | pKd (LNX1_2, Q8TBB1) | pKd (RAPGEF6, Q8TEU7) | pKd (APBA3_1, O96018) | pKd (FRMPD4, Q14CM0) | pKd (PTPN13_1, Q12923) | pKd (ARHGEF12, Q9NZN5-2) | pKd (GRASP, Q7Z6J2) | Binder | other results
below the threshold | below the threshold | below the threshold | below the threshold | below the threshold | below the threshold | below the threshold | below the threshold | below the threshold | below the threshold | below the threshold | below the threshold | below the threshold | below the threshold | below the threshold | below the threshold | 3.72 | below the threshold | 3.58 | 4.14 | SRSVVESDEL [MYPN, Q86TC9] | pKd (MAGI2_3, Q86UL8): below the threshold; pKd (SNTG2, Q9NY99): below the threshold; pKd (PDZD7_3, Q9H5P4): 3.75; pKd (FRMPD2_2, Q68DX3): below the threshold; pKd (GRIP2_4, Q9C0E4): below the threshold; pKd (FRMPD2_1, Q68DX3): below the threshold; pKd (NHERF4_4, Q86UT5): below the threshold
below the threshold | 3.85 | below the threshold | 3.57 | 3.51 | below the threshold | 3.81 | below the threshold | below the threshold | below the threshold | below the threshold | below the threshold | below the threshold | 3.66 | below the threshold | below the threshold | below the threshold | below the threshold | below the threshold | below the threshold | IDESKKEWLI [CNTNAP2, Q9UHC6] | pKd (MAGI2_3, Q86UL8): 3.5; pKd (SNTG2, Q9NY99): below the threshold; pKd (PDZD7_3, Q9H5P4): below the threshold; pKd (FRMPD2_2, Q68DX3): below the threshold; pKd (GRIP2_4, Q9C0E4): below the threshold; pKd (FRMPD2_1, Q68DX3): below the threshold; pKd (NHERF4_4, Q86UT5): below the threshold
3.84 | below the threshold | below the threshold | 3.88 | below the threshold | 3.66 | 1.96 | – | 1.88 | below the threshold | – | below the threshold | below the threshold | below the threshold | – | below the threshold | below the threshold | – | – | – | KRPEMTSSSV [MUC3A, MUC3B, Q02505;Q9H195] | pKd (GRIP2_4, Q9C0E4): below the threshold
below the threshold | – | – | below the threshold | below the threshold | 4.05 | below the threshold | below the threshold | – | 4.4 | below the threshold | below the threshold | below the threshold | below the threshold | below the threshold | below the threshold | 4.17 | below the threshold | 3.91 | 4.08 | KSRVAFFEEL [NF2, P35240;P35240-1] | pKd (PDZD7_3, Q9H5P4): 4.12; pKd (FRMPD2_2, Q68DX3): below the threshold; pKd (FRMPD2_1, Q68DX3): below the threshold; pKd (NHERF4_4, Q86UT5): below the threshold
4.07 | below the threshold | below the threshold | 5.29 | below the threshold | 3.75 | below the threshold | below the threshold | 3.78 | 3.95 | 4.66 | 4.12 | below the threshold | below the threshold | below the threshold | below the threshold | below the threshold | below the threshold | 4.36 | 4.11 | DTKNYKQTSV [CRIPT, Q9P021] | pKd (MAGI2_3, Q86UL8): 3.94; pKd (SNTG2, Q9NY99): 4.37; pKd (PDZD7_3, Q9H5P4): 3.94; pKd (FRMPD2_2, Q68DX3): below the threshold; pKd (GRIP2_4, Q9C0E4): below the threshold; pKd (FRMPD2_1, Q68DX3): below the threshold; pKd (NHERF4_4, Q86UT5): below the threshold
3.92 | below the threshold | below the threshold | below the threshold | below the threshold | below the threshold | below the threshold | below the threshold | below the threshold | 3.91 | below the threshold | below the threshold | below the threshold | below the threshold | below the threshold | below the threshold | 3.53 | below the threshold | 5.05 | 4.43 | PSVGSKKTVL [REELD1, A0A1B0GV85] | pKd (MAGI2_3, Q86UL8): below the threshold; pKd (SNTG2, Q9NY99): 3.66; pKd (PDZD7_3, Q9H5P4): 4.67; pKd (FRMPD2_2, Q68DX3): below the threshold; pKd (GRIP2_4, Q9C0E4): below the threshold; pKd (FRMPD2_1, Q68DX3): below the threshold; pKd (NHERF4_4, Q86UT5): below the threshold
